Source: article PMC8514580, “Insight into the interaction between the RNA helicase CGH-1 and EDC-3 and its implications” (Scientific Reports, 2021)
Numbering of substitutions follows the chain as printed. In names and notes the source's numbering stands. Like-named read-outs stand apart in the source and are kept apart here. No end group written: not given here.

Columns and labels:
CGH-1_248-420^F355A = CGH-1_248-420^F355A (Caenorhabditis elegans, UniProt Q95YF3, F355A); conditions: ITC, 20 °C, pH 7.5, 150 mM NaCl, CGH-1 F355A
Sequence of CGH-1_248-420^F355A (Q95YF3 248-420 F355A): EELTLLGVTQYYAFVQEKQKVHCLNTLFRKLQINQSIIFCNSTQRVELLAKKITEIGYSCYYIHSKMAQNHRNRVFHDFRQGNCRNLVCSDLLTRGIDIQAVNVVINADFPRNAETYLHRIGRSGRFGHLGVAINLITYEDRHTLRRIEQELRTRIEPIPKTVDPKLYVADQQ
Protocol: Expression plasmids regarding CGH-1 and CAR-1 were constructed as previously described. In brief, the cDNA fragments encoding CGH-1 RecA2 (residues 248–420), CAR-1 FDF-TFG (residues 184–268) were amplified by PCR from C. elegans genome library and cloned into the NdeI and XhoI site of a modified pET-28a (Novagen) vector (p28a), in which a thrombin protease cleavage site was removed.
CGH-1 protein expression and purification were performed described as in our most recent paper. In brief, proteins were expressed in E. coli Gold (DE3) strain (Novagen). […] Cells were resuspended in Buffer A (20 mM Tris–HCl, pH 7.5, 1 M NaCl), and then lysed using high pressure at 4 °C. Proteins were initially purified by Ni-chelating resin (Qiagen), and further purified by size exclusion chromatography (SEC) on a Superdex 75 column (GE healthcare) in Buffer A. The purified proteins were dialyzed into Buffer B (20 mM Tris–HCl, pH 7.5, 150 mM NaCl).
A peptide containing the C. elegans EDC-3 FDF fragment (residues 235–271) and PATR-1 fragment (residues 30–67) were synthesized from GL Biochem (Shanghai, China) Co., Ltd, respectively. Stock solutions of peptide were prepared in Buffer B described above, and were adjusted to pH 7.5 ± 0.02 for subsequent experiments.
ITC assays were performed as previously described. In brief, it was carried out on a MicroCal PEAQ-ITC (Malvern) at 20 °C with the following settings: reference power, 5 μcal/s; initial delay, 60 s; stir speed, 750 rpm; spacing time, 120 s. Proteins (or its mutants) and peptides were adjusted to 0.05 mM and 0.5 mM, respectively. Experiments were initialed by injection of 1 μl each of peptide into the sample cell (200 μl) filled with protein (or its mutants) solution, followed by 18 injections of 2 μl. The ITC data were fitted with a one-binding-site model using the Origin analysis software.

[1] = molecular target: T1, CGH-1_(248–420) wild type (CGH-1 RecA2 domain) (C. elegans, UniProt Q95YF3 248-420); assay: ITC; ligand (peptide or CAR-1 fragment, 0.5 mM) injected into CGH-1_(248-420) or mutant (0.05 mM) in the cell; 20 °C; Buffer B (20 mM Tris-HCl pH 7.5, 150 mM NaCl); one-binding-site model; conditions: both partners purified
T1 construct: Cloned into NdeI/XhoI of a modified pET-28a in which the thrombin cleavage site was removed; also called CGH-1_248-420^WT; source: E. coli Gold (DE3), purified (Ni-chelating resin, SEC Superdex 75)
T1 sequence (looked up): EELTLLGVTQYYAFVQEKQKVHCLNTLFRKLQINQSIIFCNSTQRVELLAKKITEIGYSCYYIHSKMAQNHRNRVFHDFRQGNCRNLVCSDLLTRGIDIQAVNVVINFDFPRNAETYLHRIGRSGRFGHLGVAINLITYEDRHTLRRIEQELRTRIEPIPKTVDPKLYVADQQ

CGH-1_(248–420) F261A = molecular target: T2, CGH-1_(248–420) F261A (C. elegans, UniProt Q95YF3 248-420, F261A); assay: as above; conditions: both partners purified
T2 construct: Mutant of m1 made with the MutanBEST kit; source: E. coli Gold (DE3), purified (Ni-chelating resin, SEC Superdex 75)
T2 sequence (looked up): T1 sequence (looked up) with F14A

CGH-1_(248–420) Q266A = molecular target: T3, CGH-1_(248–420) Q266A (C. elegans, UniProt Q95YF3 248-420, Q266A); assay: as above; conditions: both partners purified
T3 construct: Mutant of m1 made with the MutanBEST kit; source: E. coli Gold (DE3), purified (Ni-chelating resin, SEC Superdex 75)
T3 sequence (looked up): T1 sequence (looked up) with Q19A

CGH-1_(248–420) H269A = molecular target: T4, CGH-1_(248–420) H269A (C. elegans, UniProt Q95YF3 248-420, H269A); assay: as above; conditions: both partners purified
T4 construct: Mutant of m1 made with the MutanBEST kit; source: E. coli Gold (DE3), purified (Ni-chelating resin, SEC Superdex 75)
T4 sequence (looked up): T1 sequence (looked up) with H22A

CGH-1_(248–420) K277A = molecular target: T5, CGH-1_(248–420) K277A (C. elegans, UniProt Q95YF3 248-420, K277A); assay: as above; conditions: both partners purified
T5 construct: Mutant of m1 made with the MutanBEST kit; source: E. coli Gold (DE3), purified (Ni-chelating resin, SEC Superdex 75)
T5 sequence (looked up): T1 sequence (looked up) with K30A

CGH-1_(248–420) K277E = molecular target: T6, CGH-1_(248–420) K277E (C. elegans, UniProt Q95YF3 248-420, K277E); assay: as above; conditions: both partners purified
T6 construct: Mutant of m1 made with the MutanBEST kit; source: E. coli Gold (DE3), purified (Ni-chelating resin, SEC Superdex 75)
T6 sequence (looked up): T1 sequence (looked up) with K30E

CGH-1_(248–420) R393A = molecular target: T7, CGH-1_(248–420) R393A (C. elegans, UniProt Q95YF3 248-420, R393A); assay: as above; conditions: both partners purified
T7 construct: Mutant of m1 made with the MutanBEST kit; source: E. coli Gold (DE3), purified (Ni-chelating resin, SEC Superdex 75)
T7 sequence (looked up): T1 sequence (looked up) with R146A

CGH-1_(248–420) E396A = molecular target: T8, CGH-1_(248–420) E396A (C. elegans, UniProt Q95YF3 248-420, E396A); assay: as above; conditions: both partners purified
T8 construct: Mutant of m1 made with the MutanBEST kit; source: E. coli Gold (DE3), purified (Ni-chelating resin, SEC Superdex 75)
T8 sequence (looked up): T1 sequence (looked up) with E149A

[2] = molecular target: T9, CGH-1_(248–420) 4A mutant (His269, Cys270, Thr273 and Leu274 to Ala) (C. elegans, UniProt Q95YF3 248-420, His269 to Ala | Cys270 to Ala | Thr273 to Ala | Leu274 to Ala); assay: as above; conditions: both partners purified
T9 construct: Mutant of m1 made with the MutanBEST kit; also called four-alanine mutant; source: E. coli Gold (DE3), purified (Ni-chelating resin, SEC Superdex 75)
T9 sequence (looked up): T1 sequence (looked up) with H22A, C23A, T26A, L27A

human HA-tagged DDX6 = conditions: Co-immunoprecipitation, YFP-tagged PATL1 mutants; cited from earlier work

With “SDEDHNIFDDEFDAANDETFGGGLDNIGENAELENYAT [PATR-1_30–67]” the “KD / binding (in words)” value (CGH-1_248-420^F355A) was “almost abolished the binding”, the “KD / binding (in words)” value (CGH-1_248-420^F355A; listed as CePATR-1_30–67) was “almost abolishes the binding” and the “KD / binding (in words)” value (CGH-1_248-420^F355A; listed as PATR1 30-67) was “No binding”. The “KD / binding (in words)” value (CGH-1_248-420^F355A; listed as PATR-1 peptide) was “undetectable binding”.

B1: EDC-3 FDF peptide (EDC-3_(235–271)) (peptide)
peptide: LADPIDFDLDSDFDFAENLKLFEKDENDDQYYETVEK
notes: Enhancer of decapping-3 (EDC-3, also called LSm16), C. elegans, FDF fragment, residues 235-271; Printed with free NH2 and COOH ends; also called EDC-3 peptide; EDC-3 FDF-FEK peptide; source: synthetic peptide (GL Biochem, Shanghai)
For B1, the dH [1] was -17.6 ± 0.09 kcal per mol, the “stoichiometry N” value [1] was 1.07 and the Kd (CGH-1_(248–420) F261A) was 1160 ± 240 nM. The dH (CGH-1_(248–420) F261A) was -14.1 ± 0.48 kcal per mol, the “stoichiometry N” value (CGH-1_(248–420) F261A) was 1.09 and the Kd (CGH-1_(248–420) Q266A) was 1750 ± 380 nM. The dH (CGH-1_(248–420) Q266A) was -12.1 ± 0.51 kcal per mol, the “stoichiometry N” value (CGH-1_(248–420) Q266A) was 1.1 and the Kd (CGH-1_(248–420) H269A) was 2550 ± 320 nM. The dH (CGH-1_(248–420) H269A) was -12.5 ± 0.34 kcal per mol, the “stoichiometry N” value (CGH-1_(248–420) H269A) was 1.03 and the Kd (CGH-1_(248–420) K277A) was 2740 ± 340 nM. For the same molecule, the dH (CGH-1_(248–420) K277A) was -15.2 ± 0.47 kcal per mol, the “stoichiometry N” value (CGH-1_(248–420) K277A) was 1.22 and the Kd (CGH-1_(248–420) K277E) was 5.97 ± 0.51 µM. For the same molecule, the dH (CGH-1_(248–420) K277E) was -11.5 ± 0.3 kcal per mol, the “stoichiometry N” value (CGH-1_(248–420) K277E) was 1.12 and the Kd (CGH-1_(248–420) R393A) was 2070 ± 280 nM. For the same molecule, the dH (CGH-1_(248–420) R393A) was -17.3 ± 0.47 kcal per mol, the “stoichiometry N” value (CGH-1_(248–420) R393A) was 0.99 and the Kd (CGH-1_(248–420) E396A) was 850 ± 110 nM. For the same molecule, the dH (CGH-1_(248–420) E396A) was -16.1 ± 0.31 kcal per mol, the “stoichiometry N” value (CGH-1_(248–420) E396A) was 1 and the Kd [2] was 8.75 ± 3.64 µM. For the same molecule, the dH [2] was -5.94 ± 0.89 kcal per mol and the “stoichiometry N” value [2] was 0.79.

B2: CAR-1 FDF-TFG (CAR-1_(184–268)) (domain or fragment, C. elegans, UniProt Q9XW17 184-268, looked up)
chain: LKFESDFDFEKANEKFQEVLVDNLEKLNIEDKAEPEVEEKKDAAFYDKKTSFFDNISCESLEKAEGKTGRPDWKKERETNQETFG
notes: thrombin site of the vector removed; also called CAR-1_184-268^WT; recombinant CAR-1_(184–268) protein; source: recombinant; plasmid in modified pET-28a
For B2, the Kd [1] was 3.03 ± 0.21 µM, the dH [1] was -27 ± 0.43 kcal per mol and the “stoichiometry N” value [1] was 0.89.

B3: YFP-tagged PATL1 W46A: substitution of Trp46 to Ala in the YFP-tagged PATL1 (protein, UniProt Q86TB9 1-770, looked up, variant W46A)
Protein PAT1 homolog 1: MFRYESLEDCPLDEDEDAFQGLGEEDEEIDQFNDDTFGSGAVDDDAQEAHERLAELEEKLPVAVNEQTGNGERDEMDLLGDHEENLAERLSKMVIENELEDPAIMRAVQTRPVLQPQPGSLNSSIWDGSEVLRRIRGPLLAQEMPTVSVLEYALPQRPPQGPEDDRDLSERALPRRSTSPIIGSPPVRAVPIGTPPKQMAVPSFTQQILCPKPVHVRPPMPPRYPAPYGERMSPNQLCSVPNSSLLGHPFPPSVPPVLSPLQRAQLLGGAQLQPGRMSPSQFARVPGFVGSPLAAMNPKLLQGRVGQMLPPAPGFRAFFSAPPSATPPPQQHPPGPGPHLQNLRSQAPMFRPDTTHLHPQHRRLLHQRQQQNRSQHRNLNGAGDRGSHRSSHQDHLRKDPYANLMLQREKDWVSKIQMMQLQSTDPYLDDFYYQNYFEKLEKLSAAEEIQGDGPKKERTKLITPQVAKLEHAYKPVQFEGSLGKLTVSSVNNPRKMIDAVVTSRSEDDETKEKQVRDKRRKTLVIIEKTYSLLLDVEDYERRYLLSLEEERPALMDDRKHKICSMYDNLRGKLPGQERPSDDHFVQIMCIRKGKRMVARILPFLSTEQAADILMTTARNLPFLIKKDAQDEVLPCLLSPFSLLLYHLPSVSITSLLRQLMNLPQSAATPALSNPHLTAVLQNKFGLSLLLILLSRGEDLQSSDPATESTQNNQWTEVMFMATRELLRIPQAALAKPISIPTNLVSLFSRYVDRQKLNLLETKLQLVQGIR
modifications: YFP tag
In the case of B3, the “interaction with DDX6” value (human HA-tagged DDX6) is given as “impaired the interaction”.
